Test [1] has as its target aIL2_1-K8 (G4P linker), SNV-N frameworks (bovine (knob domain)). Nature of the test: SPR; […], Biacore 8K+; […]; HBS-EP+ (10 mM HEPES pH 7.4, 150 mM NaCl, 3 mM EDTA, 0.005% P20); 1:1 binding model. (SPR reads the build-up and loss of mass on a sensor chip optically.)
Test [2] deals with K8-K57, SNV-N frameworks (bovine (knob domain)). The description is as above.
The target in test [3] is aIL2_1-K8 (G4P linker), BECN1 frameworks (bovine (knob domain)). Nature of the test: SPR; multicycle kinetics, Biacore 8K+; knob domain constructs immobilised on a CM5 chip via amine coupling, C5 in solution; HBS-EP+ (10 mM HEPES pH 7.4, 150 mM NaCl, 3 mM EDTA, 0.005% P20); 1:1 binding model.
Test [4] deals with K8-K57, BECN1 frameworks (bovine (knob domain)). The description is as above.
Test [5] concerns the target bispecific/bivalent aIL2_1-aIL2_1-K8 fusion, SNV-N stalks, GGGGP linkers. Kind of test: SPR; bridging SPR assay: immobilised C5, binding cycles of the knob domain fusions, then a binding cycle of IL-2.
The target of test [6] is aIL2_1-K8 (G4P linker), BECN1 frameworks (bovine (knob domain)). Nature of the test: SPR; multicycle kinetics, Biacore 8K+; knob domain constructs immobilised on a CM5 chip via amine coupling, IL-2 in solution; HBS-EP+; two-state binding model, only the fastest association and the slowest dissociation rate constants reported.
Test [7] concerns the target aIL2_1-aIL2_1-K8, BECN1 frameworks (bovine (knob domain)). The test is described as above.
Test [8] concerns the target aIL2_1-aIL2_1, BECN1 frameworks (bovine (knob domain)). The test is described as above.
Test [9] deals with aIL2_1-K8 (G4P linker), SNV-N frameworks (bovine (knob domain)). Nature of the test: SPR; […], Biacore 8K+; […]; HBS-EP+; […].
Test [10] deals with aIL2_1-aIL2_1-K8, SNV-N frameworks (bovine (knob domain)). Kind of test: SPR; […], Biacore 8K+; […]; HBS-EP+; […].
The target of test [11] is aIL2_1-aIL2_1, SNV-N frameworks (bovine (knob domain)). Kind of test: SPR; […], Biacore 8K+; […]; HBS-EP+; […].

human IL-2, sequence (P60568 21-153): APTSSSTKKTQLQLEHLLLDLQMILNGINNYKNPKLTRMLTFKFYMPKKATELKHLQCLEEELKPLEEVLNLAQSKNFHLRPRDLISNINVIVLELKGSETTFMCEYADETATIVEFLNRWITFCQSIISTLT
aIL2_1-K8 (G4P linker), BECN1 frameworks (bovine (knob domain)), sequence (main, as listed by the source): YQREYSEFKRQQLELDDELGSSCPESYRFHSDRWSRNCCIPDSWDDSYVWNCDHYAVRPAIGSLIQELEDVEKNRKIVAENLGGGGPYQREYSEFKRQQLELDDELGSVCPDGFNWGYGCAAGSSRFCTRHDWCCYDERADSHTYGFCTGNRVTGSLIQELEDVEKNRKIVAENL
aIL2_1-aIL2_1-K8, BECN1 frameworks (bovine (knob domain)), sequence (main, as listed by the source): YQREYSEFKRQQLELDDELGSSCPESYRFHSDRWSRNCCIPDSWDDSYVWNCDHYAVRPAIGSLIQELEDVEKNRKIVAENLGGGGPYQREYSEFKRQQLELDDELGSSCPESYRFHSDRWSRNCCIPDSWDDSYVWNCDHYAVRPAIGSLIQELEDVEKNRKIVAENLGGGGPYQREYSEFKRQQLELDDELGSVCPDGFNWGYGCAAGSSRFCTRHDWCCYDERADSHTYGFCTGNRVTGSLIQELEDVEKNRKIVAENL
aIL2_1-aIL2_1, BECN1 frameworks (bovine (knob domain)), sequence (main, as listed by the source): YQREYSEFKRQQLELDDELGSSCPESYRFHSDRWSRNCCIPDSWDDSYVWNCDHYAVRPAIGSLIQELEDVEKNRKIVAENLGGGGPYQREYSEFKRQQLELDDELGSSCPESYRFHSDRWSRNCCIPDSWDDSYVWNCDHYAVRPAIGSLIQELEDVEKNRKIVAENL

In general, Kd refers to the free concentration of one partner at which half of the binding sites on the other are occupied at equilibrium, for simple one-to-one binding. Read a low Kd as a tighter complex. One may read the koff as a measure of how fast the partners let go of each other. Low values mean slow dissociation, high ones fast dissociation. In general, kon refers to the second-order rate constant of association. A high value points to fast association. For “complement component 5 (natural protein)”, the Kd came out at 26 nM in test [1], 1.18 nM in [2], 29 nM in test [3] and 0.9 nM in [4]. Besides, the koff in test [1] amounted to 0.00025 s⁻¹; in [2], 1.83e-05 s⁻¹; in test [3] it was 0.00026 s⁻¹; in test [4], 2.8e-05 s⁻¹. The kon in test [1] was 9700 M⁻¹ s⁻¹; in test [2], 15400 M⁻¹ s⁻¹; in [3], 8800 M⁻¹ s⁻¹; in [4] it was 31000 M⁻¹ s⁻¹.

In turn, “human IL-2 (from UniProt P60568 21-153) (natural protein)” came in with an increase in signal upon IL-2 binding in [5] of 26 RU. Moreover, the Kd in [6] was found to be 10 nM; in [7] it was 7.1 nM; in test [8] it was 7.5 nM; in test [9], 9 nM; in test [10], 5.5 nM; in test [11] it was 5.7 nM.
